Experimental data reported in publication PMC10786891, “Massively parallel profiling of RNA-targeting CRISPR-Cas13d”.
Numbering of substitutions follows the chain as printed. In names and notes the source's numbering stands.

T1: EsCas13d, nuclease-dead (Eubacterium siraeum, UniProt B0MS50, R295A;H300A;R849A;H854A)
T1 sequence: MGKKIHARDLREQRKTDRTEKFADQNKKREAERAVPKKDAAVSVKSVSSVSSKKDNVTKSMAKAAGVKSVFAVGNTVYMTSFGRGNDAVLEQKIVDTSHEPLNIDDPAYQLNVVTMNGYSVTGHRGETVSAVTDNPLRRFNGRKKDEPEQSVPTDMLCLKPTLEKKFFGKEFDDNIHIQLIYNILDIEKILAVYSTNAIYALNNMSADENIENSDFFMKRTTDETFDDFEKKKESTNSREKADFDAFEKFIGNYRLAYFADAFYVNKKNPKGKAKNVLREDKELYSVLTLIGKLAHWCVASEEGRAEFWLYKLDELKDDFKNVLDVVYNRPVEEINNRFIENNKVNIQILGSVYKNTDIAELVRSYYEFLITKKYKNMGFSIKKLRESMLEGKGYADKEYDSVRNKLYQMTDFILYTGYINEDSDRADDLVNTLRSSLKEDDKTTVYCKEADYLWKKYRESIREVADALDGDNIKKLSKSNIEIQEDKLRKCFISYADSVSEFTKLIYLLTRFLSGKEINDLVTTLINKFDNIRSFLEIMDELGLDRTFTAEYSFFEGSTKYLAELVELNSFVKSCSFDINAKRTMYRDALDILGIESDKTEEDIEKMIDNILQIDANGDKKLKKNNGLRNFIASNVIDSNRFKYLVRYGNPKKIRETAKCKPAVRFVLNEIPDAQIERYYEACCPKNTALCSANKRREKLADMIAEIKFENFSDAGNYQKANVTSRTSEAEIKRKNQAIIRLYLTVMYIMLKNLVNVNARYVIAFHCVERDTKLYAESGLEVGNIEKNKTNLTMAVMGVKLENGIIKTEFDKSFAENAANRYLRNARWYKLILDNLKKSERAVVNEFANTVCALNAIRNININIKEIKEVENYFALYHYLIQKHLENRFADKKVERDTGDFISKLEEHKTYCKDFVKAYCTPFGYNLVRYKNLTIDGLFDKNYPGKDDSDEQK

B1: target 1 insC 3' of 20,insG 3' of 10 (mixed)
RNA 1: CACCCGUGCAAAAAUGCAGGGGUCUAAAACUGAGCGGAUAACCUCUCUAUGG
RNA 2: GGGAAUGGAUCCACAUCUACGAAUUCGUACCACUAGAGAGGUUGAUCCGCUCACCGAGAUCGGAAGAGCACACGU
B2: target 1 insU 3' of 12,insU 3' of 5 (mixed)
RNA 1: B1 RNA 1
RNA 2: GGGAAUGGAUCCACAUCUACGAAUUCGUACCAUAGAGAGGUUUAUCCGUCUCACCGAGAUCGGAAGAGCACACGU
B3: target 1 insC 3' of 9 (mixed)
RNA 1: B1 RNA 1
RNA 2: GGGAAUGGAUCCACAUCUACGAAUUCGUACCAUAGAGAGGUUACUCCGCUCACCGAGAUCGGAAGAGCACACGU
B4: target 1 G5U,U8C (mixed)
RNA 1: B1 RNA 1
RNA 2: GGGAAUGGAUCCACAUCUACGAAUUCGUACCAUAGAGAGGUUACCCUCUCACCGAGAUCGGAAGAGCACACGU
B5: target 1 insC 3' of 8,insU 3' of 5 (mixed)
RNA 1: B1 RNA 1
RNA 2: B2 RNA 2 with U43A, A44U, U45C
B6: target 1 C2A,U19A (mixed)
RNA 1: B1 RNA 1
RNA 2: B4 RNA 2 with U33A, C44U, U47G, C50A
B7: target 1 insU 3' of 15,insC 3' of 12 (mixed)
RNA 1: B1 RNA 1
RNA 2: B1 RNA 2 with C33U, U34A, A35G, G36A, A37G, G38U, U42C, G44U
B8: target 1 insG 3' of 4,insC 3' of 3 (mixed)
RNA 1: B1 RNA 1
RNA 2: B2 RNA 2 with U43A, A44U, U45C, C47G, G48C, U49G, C50U, U51C
B9: target 1 insG 3' of 14,insG 3' of 2 (mixed)
RNA 1: B1 RNA 1
RNA 2: B2 RNA 2 with U41G, U49C, C50U, U51C, C52G
B10: target 1 G5A,A9C (mixed)
RNA 1: B1 RNA 1
RNA 2: B4 RNA 2 with A43C, C44U, U47A
B11: target 1 insC 3' of 17,insC 3' of 9 (mixed)
RNA 1: B1 RNA 1
RNA 2: B1 RNA 2 with C33U, U34A, A35G, G36C, G44A, A45C
B12: target 1 C2A,U3C (mixed)
RNA 1: B1 RNA 1
RNA 2: B4 RNA 2 with C44U, U47G, U49C, C50A
B13: target 1 U10C,C22A (mixed)
RNA 1: B1 RNA 1
RNA 2: B4 RNA 2 with C30A, U42C, C44U, U47G
B14: target 1 insG 3' of 21,insA 3' of 15 (mixed)
RNA 1: B1 RNA 1
RNA 2: B1 RNA 2 with A32G, C33A, G40A, U42G, G44U
B15: target 1 insG 3' of 16,insA 3' of 2 (mixed)
RNA 1: B1 RNA 1
RNA 2: B2 RNA 2 with A38G, G39A, U41G, U49C, C50U, U51C, C52A
B16: target 1 insU 3' of 22,insA 3' of 21 (mixed)
RNA 1: B1 RNA 1
RNA 2: GGGAAUGGAUCCACAUCUACGAAUUCGUACUCAAUAGAGAGGUUAUCCGCUCACCGAGAUCGGAAGAGCACACGU
B17: target 1 insG 3' of 16,insC 3' of 11 (mixed)
RNA 1: B1 RNA 1
RNA 2: B1 RNA 2 with C33U, U34A, A35G, G36A, A37G, U43C, G44U
B18: target 1 insC 3' of 14,insU 3' of 2 (mixed)
RNA 1: B1 RNA 1
RNA 2: B2 RNA 2 with G39C, U41G, U49C, C50U, U51C, C52U
B19: target 1 insU 3' of 14,insC 3' of 8 (mixed)
RNA 1: B1 RNA 1
RNA 2: B2 RNA 2 with G39U, U41G, G48C, U49G
B20: target 1 A20C,C22G (mixed)
RNA 1: B1 RNA 1
RNA 2: B4 RNA 2 with C30G, A32C, C44U, U47G
B21: target 1 insG 3' of 16,insG 3' of 1 (mixed)
RNA 1: B1 RNA 1
RNA 2: B2 RNA 2 with A38G, G39A, U41G, U49C, C50U, U51C, C52A, A53G
B22: target 1 U3G,U11C (mixed)
RNA 1: B1 RNA 1
RNA 2: B4 RNA 2 with U41C, C44U, U47G, U49G
B23: target 1 insG 3' of 16,insC 3' of 1 (mixed)
RNA 1: B1 RNA 1
RNA 2: B2 RNA 2 with A38G, G39A, U41G, U49C, C50U, U51C, C52A, A53C
B24: target 1 complement block 2-5 (mixed)
RNA 1: B1 RNA 1
RNA 2: B4 RNA 2 with C44U, U47C, C48G, U49A, C50G
B25: target 1 insC 3' of 12,insA 3' of 6 (mixed)
RNA 1: B1 RNA 1
RNA 2: B2 RNA 2 with U41C, G48A, U49G
B26: target 1 insA 3' of 11,insG 3' of 10 (mixed)
RNA 1: B1 RNA 1
RNA 2: B2 RNA 2 with U42A, A44G, U45A, C46U, G48C, U49G
B27: target 1 insG 3' of 16,insU 3' of 6 (mixed)
RNA 1: B1 RNA 1
RNA 2: B2 RNA 2 with A38G, G39A, U41G, G48U, U49G
B28: target 1 insU 3' of 5,insC 3' of 3 (mixed)
RNA 1: B1 RNA 1
RNA 2: B2 RNA 2 with U43A, A44U, U45C, C47G, G48U, U49C, C50U, U51C
B29: target 1 insC 3' of 3 (mixed)
RNA 1: B1 RNA 1
RNA 2: B3 RNA 2 with C44U, U45C, C47G, G48C, C49U, U50C
B30: target 1 U11C,A16G (mixed)
RNA 1: B1 RNA 1
RNA 2: B4 RNA 2 with A36G, U41C, C44U, U47G
B31: target 1 insA 3' of 19,insC 3' of 18 (mixed)
RNA 1: B1 RNA 1
RNA 2: B16 RNA 2 with U31C, C32A, A33U, U35A, A36C
B32: target 1 insA 3' of 17,insC 3' of 15 (mixed)
RNA 1: B1 RNA 1
RNA 2: B16 RNA 2 with U31C, C32A, A33U, U35G, G37A, A38G, G39C
B33: target 1 U11C,G12U (mixed)
RNA 1: B1 RNA 1
RNA 2: B4 RNA 2 with G40U, U41C, C44U, U47G

Molecular target: T1, EsCas13d, nuclease-dead
Experiment: crRNA (strand 1, pre-loaded); Mg2+; 40 mM Tris-HCl pH 7.5, 150 mM NaCl, 6 mM MgCl2, 1 mM DTT, 0.1% Tween-20, 0.2 mg/ml BSA; 25 C; 10 min per concentration, then washed
Details: tags: His6-TwinStrep-SUMO cleaved; N-terminal SNAP kept (SNAP-Surface 488); label: 3' end held by stalled T7 RNA polymerase

Binder | Kd [nM]
B1 | 13.4 ± 2
B2 | 11 ± 0.7
B3 | 10.8 ± 0.4
B4 | 57 ± 12
B5 | 16.1 ± 1.2
B6 | 32.7 ± 3.3
B7 | 35 ± 8
B8 | 13.4 ± 1.1
B9 | 11.8 ± 0.7
B10 | 16.7 ± 1.2
B11 | 58 ± 13
B12 | 13 ± 1
B13 | 35.5 ± 2
B14 | 37 ± 6
B15 | 14.3 ± 0.9
B16 | 66 ± 6
B17 | 46 ± 11

Binder | Kd [nM]
B18 | 59 ± 11
B19 | 90 ± 40
B20 | 39.2 ± 2.3
B21 | 13 ± 0.8
B22 | 9.9 ± 0.7
B23 | 11.9 ± 1.1
B24 | 10.6 ± 0.6
B25 | 11.1 ± 0.5
B26 | 16.5 ± 0.7
B27 | 21 ± 1
B28 | 38 ± 6
B29 | 12.6 ± 0.8
B30 | 80 ± 8
B31 | 56 ± 5
B32 | 12.5 ± 1.4
B33 | 10.2 ± 0.5
